Results from patent US20230203435A1 (SYSMEX, published 2023).
Where a chain is given by its changes, count along the chain named. One block for each binder: values may come before it.

How the values were obtained:
[1] = target: T1, recombinant human ErbB2/Her2 Fc chimera (R&D Systems Inc.) (human, UniProt P04626 23-652); assay: ELISA, antigen coated at 5 ug/mL, biotin-labeled antibody, HRP-streptavidin
T1 construct: Bought reagent, coated on the ELISA plate; also called antigen of trastuzumab; Fc part of the bought chimera not given
Protocol: (§1) The affinity of each antibody for an antigen was measured by ELISA method. As antigens of each antibody, human CD20/MS4A1 full-length protein, His tag (HEK293) (ACROBiosystems Inc.), recombinant human ErbB2/Her2 Fc chimera (R&D Systems Inc.), chicken egg white-derived lysozyme (Sigma-Aldrich), animal free recombinant human IL-6 (PeproTech Inc.) and interleukin 8 (CXCL8) (Shenandoah Biotechnology, Inc.) were used. Specific operations are as follows. A solution of various antigens diluted to 5 μg/mL with PBS was added to each well of a 96-well plate (Nunc), and the plate was incubated at 4° C. overnight. After removing the solution from each well, 1% BSA/PBS was added, and the plate was incubated at room temperature for 3 hours. The solution was removed from each well, and then the plate washed three times with PBST. An antibody solution was added to each well, and the plate was incubated at room temperature for 15 minutes. The solution was removed from each well, and then the plate washed three times with PBST. A solution of HRP-labeled anti-human IgG Fc antibody (Bethyl Laboratories, Inc.), HRP-labeled goat F(ab′)2 fragment anti-mouse IgG (H+L) (Beckman Coulter, Inc.) or HRP-conjugated streptavidin (Thermo Fisher Scientific Inc.) diluted to 0.3 μg/mL with 1% BSA/PBS was added to each well, and the plate was incubated at room temperature for 1 hour. The solution was removed from each well, and then the plate washed three times with PBST. Chromogenic reaction was performed using KPL TMB (registered trademark) Peroxidase Substrate (SeraCare Life Sciences, Inc.) and the chromogenic reaction was stopped using KPL TMB (registered trademark) Peroxidase Stop Solution (SeraCare Life Sciences, Inc.). Absorbance at 450 nm was measured using a SpectraMax (registered trademark) 190 microplate reader (Molecular Devices, LLC).

[2] = target: T2, animal free recombinant human IL-6 (PeproTech Inc.) (human, UniProt P05231 30-212); assay: ELISA, antigen coated at 5 ug/mL, HRP anti-human IgG Fc detection
T2 construct: Bought reagent, coated on the ELISA plate; also called interleukin-6
Protocol: as §1

[3] = target: T3, interleukin 8 (CXCL8) (Shenandoah Biotechnology, Inc.) (UniProt P10145 28-99, limits assumed); assay: as above
T3 construct: Bought reagent, coated on the ELISA plate; also called IL-8
T3 sequence (looked up): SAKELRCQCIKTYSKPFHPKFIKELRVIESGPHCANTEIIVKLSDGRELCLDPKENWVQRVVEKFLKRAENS
Protocol: as §1

[4] = target: T4, human CD20/MS4A1 full-length protein, His tag (HEK293) (ACROBiosystems Inc.) (human, UniProt P11836 1-297); assay: as above
T4 construct: mature; Bought reagent, coated on the ELISA plate; also called antigen of rituximab; not shown: His tag
T4 sequence (looked up): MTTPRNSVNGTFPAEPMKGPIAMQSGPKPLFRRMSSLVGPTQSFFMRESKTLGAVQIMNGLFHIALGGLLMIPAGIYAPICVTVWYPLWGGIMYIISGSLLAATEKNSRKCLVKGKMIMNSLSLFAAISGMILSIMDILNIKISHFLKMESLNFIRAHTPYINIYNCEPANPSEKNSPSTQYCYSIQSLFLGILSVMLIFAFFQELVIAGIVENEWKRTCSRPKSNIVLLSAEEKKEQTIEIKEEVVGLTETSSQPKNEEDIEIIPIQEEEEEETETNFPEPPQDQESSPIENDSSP
Protocol: as §1

- EC50 [2]: 0.0327 µg/mL
- EC50 ratio [2]: 1.3 ratio (EC50 in WT taken as 1.0)
B4: R5 variant of anti-IL-6 antibody (antibody, human IgG1, kappa, V domains shown)
VH: EVQLQQSGPELVKPGASVKMSCKASGYTFTSYVMHWVKQKPGQGLEWIGYINPYNDGTKYNEKFKGKATLTSDKSSSTAYMELSSLTSEDSAVYYCAREGYGNLERDCWGQGTSVTVSS
VL: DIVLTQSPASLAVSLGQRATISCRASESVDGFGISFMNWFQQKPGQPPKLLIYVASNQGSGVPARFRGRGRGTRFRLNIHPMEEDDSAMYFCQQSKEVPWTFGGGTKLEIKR
notes: IgG; Light chain positions 63, 65, 67, 70 and 72 (Chothia) are arginine; also called anti-IL-6 antibody R5

- EC50 [3]: 0.39 µg/mL
- EC50 ratio [3]: 1 ratio (EC50 in WT taken as 1.0)
B6: anti-IL-8 antibody (mouse/human chimeric antibody), light chain FR3 not substituted (antibody, human IgG1, kappa, V domains shown)
VH: EVKLVESGGGLVKPGGSLKLSCAASGFTFNNYAMSWVRQTPEKRLEWVASISSGGNTYYPDSVKGRFTLSRDNARNILYLQMSRLRSEDTAMYYCARDKLRLPNWYFDVWGAGTTVTVSS
VL: DIVLTQSPPSLAVSLGQRATISCKASQSVDYDGDSYMNWYQQKPGQPPKVLIYGASNLESGIPARFSGSGSGTDFTLNIYPVEEEDAATYYCQQSNEDPPTFGGGTKLEIKR
notes: also called WT; anti-IL-8 antibody WT

- EC50 [4]: 0.027 µg/mL
- EC50 ratio [4]: 4710 ratio (EC50 in WT taken as 1.0)
B9: R5 variant of rituximab (antibody, human IgG1, kappa, V domains shown)
VH: QVQLQQPGAELVKPGASVKMSCKASGYTFTSYNMHWVKQTPGRGLEWIGAIYPGNGDTSYNQKFKGKATLTADKSSSTAYMQLSSLTSEDSAVYYCARSTYYGGDWYFNVWGAGTTVTVSA
VL: QIVLSQSPAILSASPGEKVTMTCRASSSVSYIHWFQQKPGSSPKPWIYATSNLASGVPVRFRGRGRGTRYRLTISRVEAEDAATYYCQQWTSNPPTFGGGTKLEIKR
notes: IgG; Light chain positions 63, 65, 67, 70 and 72 (Chothia) are arginine; also called rituximab R5

- EC50 [4]: 127 µg/mL
B10: rituximab (mouse/human chimeric antibody), light chain FR3 not substituted (antibody, human IgG1, kappa, V domains shown)
VH: B9 VH
VL: B9 VL with R62S, R64S, R66S, R69S, R71S
notes: also called WT; rituximab WT

Second part, the binder before the results:

B1: R3 variant of trastuzumab (antibody, human IgG1, kappa, V domains shown)
VH: not shown
VL: DIQMTQSPSSLSASVGDRVTITCRASQDVNTAVAWYQQKPGKAPKLLIYSASFLYSGVPSRFSGRRRGTRFTLTISSLQPEDFATYYCQQHYTTPPTFGQGTKVEIKR
notes: IgG; Light chain positions 65, 67 and 70 (Chothia) are arginine; Labeled with biotin (Biotin Labeling Kit-NH2) before the ELISA; also called trastuzumab R3
- EC50 [1]: 0.0252 µg/mL
- EC50 ratio [1]: 2 ratio (EC50 in WT taken as 1.0)

B2: R4 variant of trastuzumab (antibody, human IgG1, kappa, V domains shown)
VH: not shown
VL: B1 VL with S63R
notes: IgG; Light chain positions 63, 65, 67 and 70 (Chothia) are arginine; Labeled with biotin (Biotin Labeling Kit-NH2) before the ELISA; also called trastuzumab R4
- EC50 [1]: 0.0342 µg/mL
- EC50 ratio [1]: 1.5 ratio (EC50 in WT taken as 1.0)

B3: anti-IL-6 antibody (mouse/human chimeric antibody), light chain FR3 not substituted (antibody, human IgG1, kappa, V domains shown)
VH: B4 VH
VL: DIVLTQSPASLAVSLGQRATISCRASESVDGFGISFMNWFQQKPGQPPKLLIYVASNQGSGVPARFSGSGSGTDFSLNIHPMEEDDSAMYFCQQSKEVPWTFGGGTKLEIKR
notes: also called WT; anti-interleukin (IL)-6 antibody
- EC50 [2]: 0.041 µg/mL
- EC50 ratio [2]: 1 ratio (EC50 in WT taken as 1.0)

B5: R3 variant of anti-IL-8 antibody (antibody, human IgG1, kappa, V domains shown)
VH: B6 VH
VL: B6 VL with S67R, S69R, S71R
notes: IgG; Light chain positions 63, 65 and 67 (Chothia) are arginine; also called anti-IL-8 antibody R3
- EC50 [3]: 0.269 µg/mL
- EC50 ratio [3]: 1.4 ratio (EC50 in WT taken as 1.0)

B7: R4 variant of anti-IL-8 antibody (antibody, human IgG1, kappa, V domains shown)
VH: B6 VH
VL: B6 VL with S67R, S69R, S71R, D74R
notes: IgG; Light chain positions 63, 65, 67 and 70 (Chothia) are arginine; also called anti-IL-8 antibody R4
- EC50 [3]: 0.0598 µg/mL
- EC50 ratio [3]: 6.5 ratio (EC50 in WT taken as 1.0)

B8: R3 variant of rituximab (antibody, human IgG1, kappa, V domains shown)
VH: B9 VH
VL: B9 VL with R69S, R71S
notes: IgG; Light chain positions 63, 65 and 67 (Chothia) are arginine; Heavy chain is that of rituximab; also called rituximab R3
- EC50 [4]: 1.71 µg/mL
- EC50 ratio [4]: 74.6 ratio (EC50 in WT taken as 1.0)
